Earlier results on 1 substance are cited in paper PMC8145179.

For orientation: pKa means the negative logarithm of the acid dissociation constant.

This series addresses Cys215 (UniProt position 215, PVVVHCSAGIG). To be noted: apo (ligand-free) enzyme.

In the case of “Protein tyrosine phosphatase 1B (PTP1B) (Homo sapiens (inferred; not stated in the article))”, the pKa is on record as 5.4.
